Article PMC8395731

Biological target: 6xHis-tagged mTOR fragment ∆N-FAT-M (human) (UniProt P42345)
Test: BLI; BLItz; His-tagged mTOR fragments (1 µM) immobilised on Ni-NTA biosensors, tagless RHEB as analyte (0.5 and 1 µM, or 0.05 and 0.1 µM for ∆ATP), no GTP; 10 mM HEPES pH 7.4, 100 mM NaCl, 0.02% Tween-20, 5 mg/mL BSA, 25 °C; global 1:1 fit

Kd: 1260 nM
Substance: 6xHis-tag cleaved-RHEB (from UniProt Q15382 1-169) (natural protein)
